Measurements taken from patent publication US20180362652A1.
Blank lines part the entries; values can stand above or below the substance they belong to.

Legend:
human C1q (human) [1] = biological target: human C1q (human) (UniProt P02745); assay: C1q ELISA: antibody coated in a dilution series, human C1q at 2 µg/mL, read at 450 nm; fit of a flat curve; the unit is from the legend paragraph 61, none on the axis; A 0.06, B 41.873, D 0.09, R^2 0.735
[2] = biological target: human BDCA2 (full-length, cell surface) (human) (UniProt Q8WTT0); assay: FACS dot plot (SSC-H against FL4-H) of the CHO cells with lower BDCA2 expression used in FIG 22B, stained with APC-labelled AC144; gate from about 2x10^1 to 10^4
[3] = biological target: human BDCA2 (full-length, cell surface) (human) (UniProt Q8WTT0); assay: FACS dot plot (SSC-H against FL4-H) of the CHO cells EAG2456 T1F2 Clone 34.16.7 with high BDCA2 expression, stained with APC-labelled AC144; cells spread from about 10^1 to 10^4
human C1q (human) [4] = biological target: human C1q (human) (UniProt P02745); assay: C1q ELISA: antibody coated in a dilution series, human C1q at 2 µg/mL, read at 450 nm; column C (midpoint, the C value of paragraph 430) of the printed 4-parameter fit; the axis reads Concentration with no unit, the unit of the coated antibody is from the legend paragraph 61; A 0.06, B 2.093, D 1.573, R^2 0.997

Sequence of human C1q (human) (P02745 23-245 limits assumed, chain 1 of 3): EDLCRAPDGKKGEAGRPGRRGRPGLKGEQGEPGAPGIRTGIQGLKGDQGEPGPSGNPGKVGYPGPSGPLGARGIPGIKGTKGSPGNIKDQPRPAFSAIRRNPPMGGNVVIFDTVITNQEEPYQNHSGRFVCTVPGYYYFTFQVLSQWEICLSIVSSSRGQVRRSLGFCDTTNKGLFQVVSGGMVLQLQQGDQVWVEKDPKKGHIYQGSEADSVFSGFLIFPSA
Sequence of human C1q (human) (P02746 28-253 limits assumed, chain 2 of 3, further chain): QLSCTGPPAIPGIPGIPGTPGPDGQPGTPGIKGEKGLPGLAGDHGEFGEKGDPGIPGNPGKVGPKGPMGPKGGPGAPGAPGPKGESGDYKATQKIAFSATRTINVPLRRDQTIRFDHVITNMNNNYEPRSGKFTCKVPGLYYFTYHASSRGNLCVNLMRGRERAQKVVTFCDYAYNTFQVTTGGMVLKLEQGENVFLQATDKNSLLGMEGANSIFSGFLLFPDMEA
Sequence of human C1q (human) (P02747 29-245 limits assumed, chain 3 of 3, further chain): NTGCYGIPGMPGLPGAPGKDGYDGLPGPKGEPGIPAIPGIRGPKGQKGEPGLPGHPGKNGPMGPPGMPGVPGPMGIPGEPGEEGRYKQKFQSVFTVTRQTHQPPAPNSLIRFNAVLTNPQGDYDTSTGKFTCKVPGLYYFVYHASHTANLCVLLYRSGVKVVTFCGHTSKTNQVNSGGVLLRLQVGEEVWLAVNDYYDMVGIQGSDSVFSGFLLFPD
Sequence of human BDCA2 (full-length, cell surface) (human) (Q8WTT0 whole entry): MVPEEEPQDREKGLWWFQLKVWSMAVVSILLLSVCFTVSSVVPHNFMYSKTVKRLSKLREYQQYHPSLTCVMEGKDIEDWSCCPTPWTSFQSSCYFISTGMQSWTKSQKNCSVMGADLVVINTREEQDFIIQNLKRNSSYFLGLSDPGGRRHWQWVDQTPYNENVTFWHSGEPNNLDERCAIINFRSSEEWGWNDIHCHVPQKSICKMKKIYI
Sequence of 5C8 control (antibody) (heavy): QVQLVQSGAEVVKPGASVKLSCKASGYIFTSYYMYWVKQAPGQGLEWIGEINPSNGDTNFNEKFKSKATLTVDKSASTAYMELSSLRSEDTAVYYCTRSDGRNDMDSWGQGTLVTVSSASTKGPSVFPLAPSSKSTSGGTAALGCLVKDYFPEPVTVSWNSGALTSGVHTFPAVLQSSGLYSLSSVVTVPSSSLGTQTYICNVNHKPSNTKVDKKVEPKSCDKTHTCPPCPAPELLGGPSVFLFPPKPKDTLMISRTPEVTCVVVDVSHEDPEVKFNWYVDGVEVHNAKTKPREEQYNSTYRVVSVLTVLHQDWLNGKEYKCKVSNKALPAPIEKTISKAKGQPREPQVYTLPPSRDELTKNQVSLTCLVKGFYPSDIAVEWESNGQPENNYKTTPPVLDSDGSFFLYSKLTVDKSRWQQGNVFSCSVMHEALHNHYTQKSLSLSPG
Sequence of 5C8 control (antibody) (light): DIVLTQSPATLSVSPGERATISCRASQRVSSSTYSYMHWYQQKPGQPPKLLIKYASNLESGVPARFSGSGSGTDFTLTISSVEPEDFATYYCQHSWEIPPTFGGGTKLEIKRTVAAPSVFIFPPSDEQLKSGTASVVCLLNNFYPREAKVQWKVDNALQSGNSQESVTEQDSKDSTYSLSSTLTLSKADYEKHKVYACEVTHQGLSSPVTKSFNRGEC

C of the 4-parameter fit (midpoint), curve flat (human C1q (human) [1]): 0.062 µg/mL
Substance: 5c8 G4P/G1agly (antibody)

frequency printed in the gate BDCA2 (percent of cells) [2]: 87.8
frequency printed in the FL4-positive gate (percent of cells) [3]: 99.4
Substance: anti-human BDCA2 AC144 mAb (Miltenyi Biotec) (antibody)

EC50 (human C1q (human) [4]): 2.21 µg/mL
Substance: 5C8 control (antibody)
